Results published in the supplement of paper PMC10567573.

B1: SLC2A12 (parent)
chain: LTLVFFVQITGQPNILFYASTVLK
B2: WDFY1 (parent)
chain: LLIPKEDGVITASEDRTIRVWLKR

Variants of: B1
Assay: protein stability index of a GFP-peptide fusion (GPS, HEK-293T) (PSI 1-6); higher = more stable
Settings: c terminus: a fixed tail appended
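Also: lentivirally expressed fusions sorted by FACS into six bins by GFP to DsRed ratio, PSI derived from sequencing read proportions per bin multiplied by bin number.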

Variant | protein stability index
LTLVFFVLITGQPNILFYASTVLK | 2.46
LTLVFFVIITGQPNILFYASTVLK | 3.94
LTLVFFVHITGQPNILFYASTVLK | 3.26
LTLVFFVEITGQPNILFYASTVLK | 3.4
LTLVFFVGITGQPNILFYASTVLK | 2.93
LTLVFFVCITGQPNILFYASTVLK | 3.19
LTLVFFVPITGQPNILFYASTVLK | 2.51
LTLVFFVFITGQPNILFYASTVLK | 3.87
LTLVFFVSITGQPNILFYASTVLK | 2.51
LTLVFFVTITGQPNILFYASTVLK | 3.53
LTLVFFVKITGQPNILFYASTVLK | 3.48
LTLVFFVQITLQPNILFYASTVLK | 2.33
LTLVFFVQITYQPNILFYASTVLK | 3.04
LTLVFFVQITAQPNILFYASTVLK | 2.87
LTLVFFVQITTQPNILFYASTVLK | 2.29
LTLVFFVQITDQPNILFYASTVLK | 3.42
LTLVFFVQITNQPNILFYASTVLK | 3.96
LTLVFFVQITCQPNILFYASTVLK | 2.58
LTLVFFVQITMQPNILFYASTVLK | 3.38
LTLVFFVQITFQPNILFYASTVLK | 2.92
LTLVFFVQITSQPNILFYASTVLK | 2.87
LTLVFFVQITQQPNILFYASTVLK | 4.06

Variant | protein stability index
LTLVFFVQITPQPNILFYASTVLK | 3.28
LTLVFFVQITVQPNILFYASTVLK | 2.45
LTLVFFVQIHGQPNILFYASTVLK | 2.17
LTLVFFVQIPGQPNILFYASTVLK | 5.16
LTLVFFVQIIGQPNILFYASTVLK | 3.61
LTLVFFVQIQGQPNILFYASTVLK | 1.31
LTLVFFVQIFGQPNILFYASTVLK | 2.92
LTLVFFVQIYGQPNILFYASTVLK | 3.46
LTLVFFVQIEGQPNILFYASTVLK | 2.11
LTLVFFVQINGQPNILFYASTVLK | 1.88
LTLVFFVQIDGQPNILFYASTVLK | 2.75
LTLVFFVQIAGQPNILFYASTVLK | 3.42
LTLVFFVQISGQPNILFYASTVLK | 1.67
LTLVFFVQIKGQPNILFYASTVLK | 3.77
LTGVFFVQITGQPNILFYASTVLK | 2.17
LTAVFFVQITGQPNILFYASTVLK | 3.64
LTVVFFVQITGQPNILFYASTVLK | 4.79
LTTVFFVQITGQPNILFYASTVLK | 4.46
LTHVFFVQITGQPNILFYASTVLK | 2.75
LTPVFFVQITGQPNILFYASTVLK | 3.17
LTDVFFVQITGQPNILFYASTVLK | 2.9
LTSVFFVQITGQPNILFYASTVLK | 3.34

Variant | protein stability index
LTYVFFVQITGQPNILFYASTVLK | 2.54
LTRVFFVQITGQPNILFYASTVLK | 2.29
LTQVFFVQITGQPNILFYASTVLK | 3.25
LTEVFFVQITGQPNILFYASTVLK | 4.85
LTIVFFVQITGQPNILFYASTVLK | 3.43
LTWVFFVQITGQPNILFYASTVLK | 4.1
LTMVFFVQITGQPNILFYASTVLK | 3.15
LTNVFFVQITGQPNILFYASTVLK | 2.42
LTLVFFVQITGQPAILFYASTVLK | 2.73
LTLVFFVQITGQPIILFYASTVLK | 4.38
LTLVFFVQITGQPHILFYASTVLK | 2.96
LTLVFFVQITGQPQILFYASTVLK | 3.83
LTLVFFVQITGQPFILFYASTVLK | 3.6
LTLVFFVQITGQPDILFYASTVLK | 3.93
LTLVFFVQITGQPGILFYASTVLK | 3.5
LTLVFFVQITGQPCILFYASTVLK | 1.99
LTLVFFVQITGQPMILFYASTVLK | 2.01
LTLVFFVQITGQPEILFYASTVLK | 1.76
LTLVFFVQITGQPLILFYASTVLK | 3.78
LTLVFFVQITGQPPILFYASTVLK | 2.34
LTLHFFVQITGQPNILFYASTVLK | 3.15
LTLCFFVQITGQPNILFYASTVLK | 3.38

Variant | protein stability index
LTLSFFVQITGQPNILFYASTVLK | 2.54
LTLKFFVQITGQPNILFYASTVLK | 2.64
LTLWFFVQITGQPNILFYASTVLK | 2.98
LTLMFFVQITGQPNILFYASTVLK | 2.09
LTLIFFVQITGQPNILFYASTVLK | 2.99
LTLNFFVQITGQPNILFYASTVLK | 2.73
LTLPFFVQITGQPNILFYASTVLK | 2.67
LTLDFFVQITGQPNILFYASTVLK | 3.68
LTLQFFVQITGQPNILFYASTVLK | 3.56
LTLLFFVQITGQPNILFYASTVLK | 2.65
LTLEFFVQITGQPNILFYASTVLK | 1.44
LTLGFFVQITGQPNILFYASTVLK | 4
LTLYFFVQITGQPNILFYASTVLK | 2.54
LTLVFFHQITGQPNILFYASTVLK | 3.64
LTLVFFWQITGQPNILFYASTVLK | 2.61
LTLVFFAQITGQPNILFYASTVLK | 2.03
LTLVFFKQITGQPNILFYASTVLK | 1.59
LTLVFFDQITGQPNILFYASTVLK | 3.27
LTLVFFSQITGQPNILFYASTVLK | 2.3
LTLVFFYQITGQPNILFYASTVLK | 3.38
LTLVFFMQITGQPNILFYASTVLK | 4.19

Variants of: B2
Assay: as above
Settings: c terminus: a fixed tail appended

Variant | protein stability index
LLIPKEDGVITASEDRTIRVWLKS | 2.18
LLIPKEDGVITASEDRTIRVWLKV | 1.69
LLIPKEDGVITASEDRTIRVWLKQ | 2.71
LLIPKEDGVITASEDRTIRVWLKW | 2.01
LLIPKEDGVITASEDRTIRVWLKN | 2.34
LLIPKEDGVITASEDRTIRVWLKP | 2.07
LLIPKEDGVITASEDRTIRVWLKY | 2.07
